# Measured values as given in PMC6181373.
# Where “and” joins values, the source holds several entries; their conditions need not be identical. Identical values can stand only once.
# How the values were obtained:
# Experiment in all cases: SPRi
# Conditions in all cases: 5' disulfide, aptamer on gold chip, 10 mM HEPES, 120 mM NaCl, 10 mM KCl, 5 mM MgCl2, pH 7.4, targets in PBS with 0.1% Tween, random-DNA signal subtracted, temperature …
# [1] = target: LF-LDL (LDL subfraction particle; ApoB100 lipoprotein) (UniProt P04114)
# HDL particle = system: HDL particle
# [2] = target: LDL particle (all LDL-P; ApoB100 lipoprotein) (UniProt P04114)
# [3] = target: LDL particle (all LDL-P; ApoB100 lipoprotein) (UniProt P04114); remark: listed apart in the source
# [4] = target: SD-LDL (small dense LDL particle; ApoB100 lipoprotein) (UniProt P04114)
Sequence,Kd [1] [nM],Kd (HDL particle) [nM],Kd [2] [nM],Kd [3],Kd [4] [nM]
AACTACATGGTATGTGGTGAACTGTCAGCTTCTTCTATATAATTCACCTTGCCTCTCGTTCCTGACGTACAATGTACCC [LDL-A2],0.0159,7.25,0.0421,0.015 nM and 0.00512 nM,
AACTACATGGTATGTGGTGAACTAACCTTAATTTACCCTTGTTTTATCATTTCCATCATAGCTGACGTACAATGTACCC [LDL-A12],,9.69,0.0497,0.0108 nM and 0.0466 nM,0.023
AACTACATGGTATGTGGTGAACTACCTCGATTTTATATTATTTCGCTTACCAACAACTGCAGAGACGTACAATGTACCC [LDL-A1],0.0327,8.26,0.0531,0.0214 nM,0.302
AACTACATGGTATGTGGTGAACTAAACCATTCTTGTCTCGCATTTTTCTCTTTTATATTATTTGACGTACAATGTACCC [LDL-A38],,11.5,0.0455,0.0207 nM and 0.0178 nM,0.234
